Reference: the nanobody polyreactivity screen of Harvey et al. (2022)

Assay: yeast display, Sf9 membrane polyspecificity reagent, FACS + sequencing; frameworks hold sequencing errors
Method in brief: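 Sorting gates, low and high (top ~1%), were placed on anti-HA fluorescence to track expression and on streptavidin fluorescence to track reagent binding. A clone's polyreactivity label is taken from the gate it came out of. The reagent was 10% biotinylated, detergent-solubilized Sf9 membrane, applied for 1 hour at 4 °C to galactose-induced yeast display cells.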

Sequence | polyreactivity (PSR sort gate)
QVQLVKSGGGLVQAGGSLRLSCAASGIIFWLYDMGWYRQAPGKERELVAVITWSGDSTYADSVKGRFTISRDNAKNTVYLQMNSLKPEDTAVYYCAAREYYRKPYDHWGQGTQVTVSS | high polyreactivity
QVQLVESGGGLVQAGGSLRLSCAASGLTFYVYAMGWYRQAPGKERELVAAISSGGRTYYADSVKGRFTISRDNAKNTVYLQMNSLKPEDTAVYYCAAVRHRNYWGQGTQVTVSS | high polyreactivity
QVQLVESGGGLVQAGGSLRLSCAASGRTFYSNAMGWYRQAPGKERELVAVIRWNGGSTYADSVKGRFTISRDNAKNTVYLQMNSLKPEDTAVYYCAVTRYHSPPRYYYWGQGTQVTVSS | low polyreactivity
QVQLVESGGGLVQAVGSLRLSCAASGFIFYRNVMGWYREAPGKERELVAAISGSGGRTYYADSVKGRFTISRDNAKNTVYLQLNSLKPEDTAVYDCAADASLEGDYWGQGTQVTVSS | high polyreactivity
QVQLVESGGGLVQAGGSLRLSCAASGSILGPYAMGWYRQAPGKERELVAANSQSGARTYYADSVKGRFTISRDNAKNTVYLQMNSLKPEDTAVYYCAAQSRKGGWSAYYYWGQGTQVTVSS | high polyreactivity
QDHLVDSGGGLVQAGGSLRLSCAAYGFTFYYNTMGWYRQAPGKERQLVAAISYSAGSTFYADSVKGRFTISRDNAKNTVYLQMNSLKPEDTAVYYCAAGRPRLHKGYHFGYWGQGTQVTVSS | low polyreactivity
QVQLVESGGGLVQAGGSLRLSCAASGIIFLVYAMGWSRQAPGKEGQLVAGISGSATSTNYADSVKGRFTISRDNAKNTVYLEMNSLKPEDTAVYYCAASYYGYYVPDNSKYGYWGQGTQVTVSS | low polyreactivity
QVQLVESGGGLVQAGGSLRLSCAASGGTFSYYTMGWYRPAPGKERELVAAISSGGSTNYADSVKGRFTISRDNAKNTVYLQMNSLKPEDTAVYYCAVRSGRRNYDRPAFGYWGQGTQVTVSS | high polyreactivity
QVQLVESGGGLVQAGGSLRLSCAASGRIFGGYVMGWYRQAPGKEREFVAAISGRGTSTSYADSVKGRFTISRDNAKNTVYLQMNSLKPEDTAVYYCAARRDGWTFWKYDYWGQGTQVTVSS | high polyreactivity
QVQLVESGGGLVQAGGSLRLSCAASGFTLRRNAMGWYRQAPGKERELVAAISSSGSTYYADSVKGRFTISRDNAKNTVYLQMNSLKPEDTAVYYCAASATYKVRGGYWGQGTQVTVSS | high polyreactivity
QVQLVESGGGLVQAGGGLRLSCSASGYIFGYTAMGWYRQAPGKERELVAAISYSGGSTYYADSVKGRFTISRDNAKNTVYLQMNSLKPVDTAVYYCAAYRKGTWPGYLGVGYDYWGQGTQVTVSS | high polyreactivity
QVQLVESGGGLVQAGGSLRLSCAASGGTFLAYAMGWSRQAPGKEREFVAGISNDGDTNYADSVKGRFTISRDNAKNTVYLQMNSLKPEDTAVYYCAALYRGYAVAASYYHWGQGTQVTVSS | high polyreactivity
QVQLVESGGGLVQAGCRLRLSCAASGSIIYRKAMGWYRQAPGKERQLVAAISARGGRTNYAVSVKGRFTISRDNAKNTVYLQLYSLNPEDTAVYYCNTADSWYHRSQAYDYWGQGTQVTVSS | high polyreactivity
QVHLVESGGGIDQAGGSLRLSCAASGSIFRNYAMAWKRQAPGKERELVAFITRGGSTYYADSVKVRFTISRDNAKNTVYFQMNSLKPEHTAVYYCAADFWPAGLDLGYWGQGTQVTLSS | low polyreactivity
QVQLVESGGGLVQAGGSLRLSCAASGGIFGYYAMGWYRQAPGKERELVAAITLSGGRTYYADSVKGRFTISRDNAKNTVYLQMNSLKPEDTAVYYCAAKGTRRGKERNYWGQGTQVTVSS | high polyreactivity
QVQLVESGGGLVQAGGSLRLSCAASGSIFDYYGMGWYRQAPGKEGELVATISQGGDSSYYADSVKGRFTISRDNAKNTVYLQMNSLKPEDTAVYYCAALVPIYRWYKLYYWGQGTQVTLSS | low polyreactivity
QVQLVESGGGLVQAGGSLRLSCAASGSTFYPNAMGWYRQAPGKERELVAAIDRGGSTSYADSVKGRFTISRDNAKNTVYLQMNSLKPEDTAVYYCAVARGGRRKYEYWGQGTQVTVSS | low polyreactivity
QVQLVESGGGLVQAGGSLRLSCAASGFTFWYYAMGWYRQAPGKERELVAGIDSGGSTYYADSVKGRFTISRDNAKNTVYFQMNSLKPEETAVYYCAARPDQGLAYSPLPWYNYWGQGTQVTVSS | low polyreactivity
QVQLVESGGGLVQAGGSLPLTCAASGRIFGVYAMGWYRQAPGKERELVASISWSGSSTYYADSVKGRFTISRDNEKNTVYLQMNSLKPEDTAVYYCAADANHYRYGGGYWGQGTQVTVSS | low polyreactivity
QVQLVESGGGLVQAGGSLRLSCAASGSTFYIYAMGWYRQAPGKERELVAAITWSGGSTYYADSVKGRFTISRDNAKNTVYLQMNSQKPEDTAVYYCATKRARYSYDYWGQGTQVTVSS | high polyreactivity
QVQLVESGGGLVQAGGSLRLSCAASGSTFVGNAMGWYRQAPGKERELVATIRYSDGSTYYADSVKGRFTISRDNAKNTVYLQMNSLKPEDTAVYYCATRVKQKGPYRYSARYFYTYNYWGQGTQVTVSS | high polyreactivity
QVQLVESGGGLVQAGGSLRLSCAASGRWLYAMGWYIQAPAKERELVAAISRSGGSTNYADSVKGRFTISRDNAKNTVYLQMNSLKPEDTAVYYCATKYNADTRYDYWGQGTQVTVSS | low polyreactivity

Sequence | polyreactivity (PSR sort gate)
QVQLVESGGGLVQAGGSLRLSCAASGSIFSDYTMGWYRQAPGKERELVAAISGIGGSTYYADSVKGRFTISRDNAKNTVYLQMNSLTPEDTAVYYCAPDDYYYPYFSHDYWGQGTQVTVSS | low polyreactivity
QVQHVESGGGLGQAVGSLRLSCAASGFTFARNAMGWDRQAPGQERELVAAISSSGAGTYYADSVKGRFTISRDNSKNTVYLQMNSLKPEDTAVYYCAAYSWKGYDYWGQGTQVTVSS | high polyreactivity
QVQLVESGGGLVQAGGSLRLSCAASGYIFGYNAMGWYRQAAGQERELVAAITYSGGNTYYADSVKGRFTISRDNANNTVYLQMNSLKPEDTAVYYCAADFLYGAEGNEYWGQGTQVTVSS | high polyreactivity
QVQLVESGGGLVQAGGSLRLSCAASGFISSENAMGWYRQAPGKERELVAAISSGGSTNYADSVKGRFTISRDNAKNTVYLQMNSIKREDTAVYYCAATLPGWYNEDDSWGQGTQVTVSS | low polyreactivity
QVQLVESGGGLVQAGGSLRLSCAASGRTFYRYAMGWYRQAPGKERELVAAITRRGDSTSYADSVKGRFTNSRDNAKNTVYLQMNSLKPEDTADYYCATLVQGSVYGLYGGGYWGQGTQVTVSS | low polyreactivity
QVQLVESGGGLVQAGGSLRLSCAASGRTFWRYAMGWYRQAPGKEREVVAAISRRGDSTYYADSVKGRFTISRDYAKNTVYLQMNSLKPEDTAVYYCNKGYAYSHDDPYWYSPRYDYWGQGTQVTVSS | low polyreactivity
QVQLVESGGGLVQAGGSLRLSCAASGRIFTRYTMGWYRQAPGKERELVASITSSGSSTYYADSVKGRFTISRDNAKNTVYLQMNSLKPEDTAVYYCAARSRLRYLYDYWGQGTQVTVSS | high polyreactivity
QVQLVESGGGLVQAGGSLRLSCAASGRIFNSYAMGWYRQAPGKERELVAAISRNGGITYYADSVKGRFTISRDNAKNTVYLQMNSLKAEATAVYYCNADSSRRRYSSDYWGQGTQVTVSS | high polyreactivity
QVQLVESGGGLVQAGGSLRLSCAASGLTFPHYAMGWYRQAPGKERELVAAISSGGSTHYADSVKGRFTISRDNAKNTVYLQMNSLKPEDTAVYYCAARRHGRRTVQGKFDFWGQGTQVTVSS | high polyreactivity
QVQLVESGGGLVHAGGSLRISCAASGRTFQRNAMGWYRQAPGKERELVAAISGGGSTYYADSVKGRFTISRDNAKNTVYLQMNSLKPEDTAVYYCAASSATRLYYFSRGYDYWGQGTQVTVSS | low polyreactivity
QVQLVESGGGLVQAGGSLRLSCAASGFTFRRYDMGWYRQAPGKERELVATINRGGSTDYADSVKGRFTISRDNAKNTVYLQLNSLKPEDTAVYYCATRYYSSRTWSEYYYWGQGTQVTVSS | high polyreactivity
QVQLVESGGGLVQAGGSLRLSCAASGSIFNGYVMGWYTQAPGKERELVAANSRSGGRTYYADSVKGRFTISRDNAKNTVYLQMNSLKPEDTAVYYCAARNYLYAIMGKWLDYNYWGQGTQVTVSS | high polyreactivity
QVQLVESGGGLVQAGGSLRLSCASSGSTLYDNAKGWYRPAPGKERELVAAISKSGGRTYYADSVKGRFTISRDNAKNSVYLQMNSLKPEDTAVYYCNDVSSGGDYNYWGQGTQVTVSS | high polyreactivity
QVQLVESGGGLFQAGGSLRLSCAASGRIFQYHAMGWYRQAPGKERELVAAIRRGRGSTYYADSVKGRFTISRDYAKNTVYLQMNSLKPVDTAVYYCAARRKRVSFYPEYDFWGQGTQVTVSS | low polyreactivity
QVQLVESGGGLVQAGGSLRLNCAASGRSFQSYAMGWYRTAPGKERELVAAITWSGGDTYYADSVKGRFTISRDNAKNTVYLQMNSLKPEDTAVYYCAKEQGLYSVSPYDYWGQGTQVTVSS | low polyreactivity
QVQLVESGGGLVQAGGSLRLSCAASGSIFSSNAMGWYRQAPGSTNYADSVKGRFTISRDNAKNTVYLQMNSLKPEDTAVYYCAKDYVLFQYVDFQDDDYWGQGTQVTVSS | low polyreactivity
QFQLVESGGGVVQAGGRLRLSCAASGSNFPRYAMGWYIQAPGKERELVAAISSSGGDTYYADSVKGLYTISRDNAKNTVYLQMNSLKPEDTAVYYCAALGAFPSLEFDYCGQGTQVTVSS | low polyreactivity
QVQLVESGGGLVQAGGSLRLSCAASGSIFIGYAMGWYRQAPGKERELVAAISNSGGRTYYADSVKGRFTISRDNAKNTVYLQMNSLKPEDTAVYYCAAEERYAYRYDYSGQGTQVTVSS | high polyreactivity
QVQLVESGGGLVQAGGSLRLSCAASGRTFYYAMGWYRQAPGKERELVATITSGGSTNYADSVKGRFTISRDNAKNTVYVQMNSLKPEDTAVYYCNRDIPPGNYYKALYYYWGQGTQVTVSS | low polyreactivity
QVQLVESGGGLVQAGVSLRLSCAASGGTLSNYAMGWYRQAPGKERELVAAITYRGGSTYYADSVKGRFTISRDNAKNTVYLQMNSQKPEDTAVYSCAAPGFKPFSFDSWGQGTQVTVSS | low polyreactivity
QVQLVESAGGLVQAGGSLRLSCAPSGSTFYHNVMGWYSPAPGKERELVASIDTGDSTNYADSVKGRFTISRDNAKNTVYLQMNSLKPEDTAVYYCARSQAVYDGWFAKFGYWGQGTQVTVSS | low polyreactivity
